Molecular target: T1, MBP-Cdc12(1–765-6A) (S. pombe, UniProt Q10059 1-765, T20A | T22A | S64A | T95A | T151A | S463A)
T1 sequence (looked up): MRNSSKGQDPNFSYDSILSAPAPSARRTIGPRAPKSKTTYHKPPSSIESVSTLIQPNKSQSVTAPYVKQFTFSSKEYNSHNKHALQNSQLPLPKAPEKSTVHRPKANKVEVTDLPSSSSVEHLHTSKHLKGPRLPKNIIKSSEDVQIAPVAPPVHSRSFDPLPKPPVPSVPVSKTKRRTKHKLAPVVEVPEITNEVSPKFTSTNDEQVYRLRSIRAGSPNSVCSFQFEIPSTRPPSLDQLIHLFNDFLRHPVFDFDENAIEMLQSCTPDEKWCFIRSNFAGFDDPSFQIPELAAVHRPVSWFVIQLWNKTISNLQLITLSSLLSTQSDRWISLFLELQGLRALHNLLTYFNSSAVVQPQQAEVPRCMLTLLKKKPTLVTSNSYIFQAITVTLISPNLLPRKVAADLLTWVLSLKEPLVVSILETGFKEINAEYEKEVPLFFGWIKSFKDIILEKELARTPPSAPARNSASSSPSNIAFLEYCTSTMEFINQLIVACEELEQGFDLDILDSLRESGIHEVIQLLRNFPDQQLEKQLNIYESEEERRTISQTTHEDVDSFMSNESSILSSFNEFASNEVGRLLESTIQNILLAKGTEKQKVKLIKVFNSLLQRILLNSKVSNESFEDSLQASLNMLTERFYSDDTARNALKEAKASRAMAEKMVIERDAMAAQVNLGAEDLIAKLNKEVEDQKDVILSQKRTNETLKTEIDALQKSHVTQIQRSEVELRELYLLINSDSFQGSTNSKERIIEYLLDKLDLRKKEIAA
Experiment: pull-down

binding result: binds
B1: Cdc15 F-BAR(19–312) (domain or fragment, S. pombe, UniProt Q09822 19-312, looked up)
chain: SVKFRDNFWGSEDAGMDALMSRTKSSLSVLESIDEFYAKRASIEREYASKLQELAASSADIPEVGSTLNNILSMRTETGSMAKAHEEVSQQINTELRNKIREYIDQTEQQKVVAANAIEELYQKKTALEIDLSEKKDAYEYSCNKLNSYMRQTKKMTGRELDKYNLKIRQAALAVKKMDAEYRETNELLLTVTREWIDRWTEVCDAFQHIEEYRLEFLKTNMWAYANIISTACVKDDESCEKIRLTLENTNIDEDITQMIQNEGTGTTIPPLPEFNDYFKENGLNYDIDQLISK

From article PMC6003227 (Molecular Biology of the Cell, 2018)
